# The DeepSol protein solubility set
# Assay: soluble on expression in E. coli; label from the status in PepcDB or PDB records
row,Sequence,soluble on expression in E. coli
1,MALDRLREALGEALFGQEEVIEALLAVLLARGHALLEGMPGLGKTLLAESLARASGLAYKRIQFTPDLLPQDLTGSEVYREGRFVFVPGPIFAQVVLADEINRAPPKVQSALLEAMQERAVTAGGVRHPLPEPFFVIATQNPLELEGTYPLPEAQLDRFTAKIPFRPPRREVWLRILTEEPKAPEPVEVDLLKAQEEAKEVRVAKEALEAITHVAFLTQEDQRLRMGLSPRGAKAWLSLARALAYLRGKPFVDWKELKDAAFLALPHRLFLTEEALYAGESAEGVLKEALRKGGIPLEHHHHHH,soluble
2,MALGLKCFRMVHPTFRNYLAASIRPVSEVTLKTVHERQHGHRQYMAYSAVPVRHFATKKAKAKGKGQSQTRVNINAALVEDIINLEEVNEEMKSVIEALKDNFNKTLNIRTSPGSLDKIAVVTADGKLALNQISQISMKSPQLILVNMASFPECTAAAIKAIRESGMNLNPEVEGTLIRVPIPQVTREHREMLVKLAKQNTNKAKDSLRKVRTNSMNKLKKSKDTVSEDTIRLIEKQISQMADDTVAELDRHLAVKTKELLG,soluble
3,MALKNVPFRSEVLAWNSDNLADYFRKLNYRDCEKAVKKYHIDGARFLNLTENDIQKFPKLRMPLLSKLSQDINKNEERRSIFTRKPQIPRFLEETESHEEDDGGWSSFEDDYESPNDDDPDGEDDGDYESPNEEEQALVDDAADYEPPPSNNEEALQSSILPPNSFHNTNSMYIDRPPTGKVSQQPPVPPLRPKPALPPLPTGRNHSPLSPPHPNHEEPSRSGNNKTAKLPAPSIDRSTKPPLDRSLAPLDREPFILGKKPPFSDKPSAPLGREHLPKIQKPPLPPAMDRHERNERLGPVTTRKPPVPRHGRGPDRRENDEDDVHQRPLPQPSLPSMSSNTFPSRSVQPSSKNTFPLAHMPGAFSESNIGFQQSASLPPYFSQGPGNRPPLRSEGRNLPLPVPNRPQPPSPGEEETPLDEEWYVSYITRPEAEAALRKINQDGTFLVRDSSKKTANNPYVLMVLYKDKVYNIQIRYQEESQVYLLGTGLRGKEDFLSVSDIIDYFRKMPLLLIDGKNRGSRYQCTLTHAAGCL,soluble
4,MALLEICCYSMECALTAQQNGADRVELCAAPKEGGLTPSLGVLKSVRQRVTIPVHPIIRPRGGDFCYSDGEFAAILEDVRTVRELGFPGLVTGVLDVDGNVDMPRMEKIMAAAGPLAVTFHRAFDMCANPLYTLNNLAELGIARVLTSGQKSDALQGLSKIMELIAHRDAPIIMAGAGVRAENLHHFLDAGVLEVHSSAGAWQASPMRYRNQGLSMSSDEHADEYSRYIVDGAAVAEMKGIIERHQAKLEHHHHHH,soluble
5,MALMTNKTRALLIGGHGKVALLATPMLIDASVQVTSMYRNPDHRSEIEALGATTLERDVTTLSVEDWADLLKDFDVVVWSAGNGGKNGADATYAIDRDAAIASIDGAASLGEKAPRYIMVSYIGSSTHTIDPSASFYPYAESKKAADEHLSSTNLDYLILAPAALTLDEVNGVEVIADTNEAAAGRTTSRVLVAEVITEFVVRDFPQTRVLPFVDGESPLEHHHHHH,soluble
6,MALNADDEDFEWEPPSEAEMKVIQARRERQDKISKLMGDYLLKGYKMLGECCELCGTILLQDKQKKNYCVACQELDSDVDKDNPALNAQAALSQVRERQLATQPVPESNGASSSEPPLSITGQPRPEHCEGAASGLRGPPPTVQPTPLSIPTPASNFLPPSNPPVQTTPPVGSSGSSLHHHPALSSAEEAVLHKLRWATQELQHAASVEASIQLCNLIRGCAESLRSLKELQLS,not soluble
7,MALNVAPVRDTKWLTLEVCRQFQRGTCSRSDEECKFAHPPKSCQVENGRVIACFDSLKGRCSRENCKYLHPPTHLKTQLEINGRNNLIQQKTAAAMLAQQMQFMFPGTPLHPVPTFPVGPAIGTNTAISFAPYLAPVTPGVGLVPTEILPTTPVIVPGSPPVTVPGSTATQKLLRTDKLEVCREFQRGNCARGETDCRFAHPADSTMIDTSDNTVTVCMDYIKGRCMREKCKYFHPPAHLQAKIKAAQHQANQAAVAAQAAAAAATVMAFPPGALHPLPKRQALEKSNGTSAVFNPSVLHYQQALTSAQLQQHAAFIPTVPMMHSATSATVSAATTPATSVPFAATATANQIILK,soluble
8,MALPQDSVNMALFCDFENIALGVRDTKFEKFDIKPVLEKLLLKGSIVVKKAYCDWDRYKTFKAAMHEASFELIEIPHVRQSGKNSADIRLVVDALDLCYTKAHVDTFVIISGDSDFSPLVSKLRENAKRVIGVGVKNSTSDLLVANCDEFIFYDDLAR,not soluble
9,MALTEQKRVRLEKLSDENGIISALAFDQRGALKRLMVKHQTEEPTVAQMEELKVLVADELTKYASSMLLDPEYGLPATKALDEKAGLLLAYEKTGYDTTSTKRLPDCLDVWSAKRIKEEGADAVKFLLYYDVDSSDELNQEKQAYIERIGSECVAEDIPFFLEILAYDEKIADAGSVEYAKVKPHKVIGAMKVFSDPRFNIDVLKVEVPVNIKYVEGFAEGEVVYTREEAAAFFKAQDEATNLPYIYLSAGVSAKLFQDTLVFAHESGANFNGVLCGRATWAGSVEAYIKDGEAAARECVRTTGFENIDELNKVLQRTATSWKERV,soluble
10,MALVFVYGTLKRGQPNHRVLRDGAHGSAAFRARGRTLEPYPLVIAGEHNIPWLLHLPGSGRLVEGEVYAVDERMLRFLDDFESCPALYQRTVLRVQLLEDRAPGAEEPPAPTAVQCFVYSRATFPPEWAQLPHHDSYDSEGPHGLRYNPRENR,soluble
11,MALVKIVRIETFPLFHRLEKPYGDANGFKRYRTCYLIRIITESGIDGWGECVDWLPALHVGFTKRIIPFLLGKQAGSRLSLVRTIQKWHQRAASAVSMALTEIAAKAADCSVCELWGGRYREEIPVYASFQSYSDSPQWISRSVSNVEAQLKKGFEQIKVKIGGTSFKEDVRHINALQHTAGSSITMILDANQSYDAAAAFKWERYFSEWTNIGWLEEPLPFDQPQDYAMLRSRLSVPVAGGENMKGPAQYVPLLSQRCLDIIQPDVMHVNGIDEFRDCLQLARYFGVRASAHAYDGSLSRLYALFAQACLPPWSKMKNDHIEPIEWDVMENPFTDLVSLQPSKGMVHIPKGKGIGTEINMEIVNRYKWDGSAYEGHHHHHH,soluble
12,MAMAKARKPREALLWALSDLEENDFKKLKFYLRDMTLSEGQPPLARGELEGLIPVDLAELLISKYGEKEAVKVVLKGLKVMNLLELVDQLSHICLHDYREVYREHVRCLEEWQEAGVNGRYNQVLLVAKPSSESPESLACPFPEQELESVTVEALFDSGEKPSLAPSLVVLQGSAGTGKTTLARKMVLDWATGTLYPGRFDYVFYVSCKEVVLLLESKLEQLLFWCCGDNQAPVTEILRQPERLLFILDGFDELQRPFEEKLKKRGLSPKESLLHLLIRRHTLPTCSLLITTRPLALRNLEPLLKQARHVHILGFSEEERARYFSSYFTDEKQADRAFDIVQKNDILYKACQVPGICWVVCSWLQGQMERGKVVLETPRNSTDIFMAYVSTFLPPDDDGGCSELSRHRVLRSLCSLAAEGIQHQRFLFEEAELRKHNLDGPRLAAFLSSNDYQLGLAIKKFYSFRHISFQDFFHAMSYLVKEDQSRLGKESRREVQRLLEVKEQEGNDEMTLTMQFLLDISKKDSFSNLELKFCFRISPCLAQDLKHFKEQMESMKHNRTWDLEFSLYEAKIKNLVKVKFLKGKSEERMKETLP,soluble
13,MAMAVSGAVLSGLGSSFLTGGKRGATALASGVGTGAQRVGRKTLIVAAAAAQPKKSWIPAVKGGGNFLDPEWLDGSLPGDFGFDPLGLGKDPAFLKWYREAELIHGRWAMAAVLGIFVGQAWSGVAWFEAGAQPDAIAPFSFGSLLGTQLLLMGWVESKRWVDFFNPDSQSVEWATPWSKTAENFANYTGDQGYPGGRFFDPLGLAGKNRDGVYEPDFEKLERLKLAEIKHSRLAMVAMLIFYFEAGQGKTPLGALGL,soluble
14,MAMDNQGWFSNETATFGDRLAGAREAAGLTQEEMARRLGVRLKTLQSWEDDLAEPRANRLQMMAGMLNVSLRWLLTGEGEGAEGPSEPAILTSEGREALAELARMRTQMLALAQEMGQLEKRMRALLRKEAE,not soluble
15,MAMGRTTQFTLDEVAKHADKDSCWLVIDGKVYAVEKFLNEHPGGEDVLLETAGRDATREFEDVGHSKSAREQLKEFYIGDVREPTAEELAAKRAVQASAAAERRDGDGVRANGLGKERLFAGGAFGAEPLSGGSSTWTLLKRLFVPVCIAVLVYLVREYSKQVQTGG,not soluble
